Source: publication PMC7785629

What was measured:
purified protein = substrate: Nc1ncnc2c1ncn2[C@@H]1O[C@H](COP(=O)(O)OP(=O)(O)OP(=O)(O)O)[C@@H](O)[C@H]1O; assay: purified protein; assay type: biochemical, Homo sapiens; conditions: Mg2+ nucleotide binding domain
[1] = substrate: Nc1ncnc2c1ncn2[C@@H]1O[C@H](COP(=O)(O)OP(=O)(O)OP(=O)(O)O)[C@@H](O)[C@H]1O; assay: Michaelis-Menten ATPase kinetics; assay type: biochemical, Homo sapiens; conditions: Mg2+ nucleotide binding domain

Row | Protein | Km (purified protein) | Vmax (purified protein) | Km [1] | Vmax [1]
1 | ABCB7 (Homo sapiens) (protein) HSAILIRPLVSVSGSGPQWRPHQLGALGTARAYQIPESLKSITWQRLGKGNSGQFLDAAKALQVWPLIEKRTCWHGHAGGGLHTDPKEGLKDVDTRKIIKAMLSYVWPKDRPDLRARVAISLGFLGGAKAMNIVVPFMFKYAVDSLNQMSGNMLNLSDAPNTVATMATAVLIGYGVSRAGAAFFNEVRNAVFGKVAQNSIRRIAKNVFLHLHNLDLGFHLSRQTGALSKAIDRGTRGISFVLSALVFNLLPIMFEVMLVSGVLYYKCGAQFALVTLGTLGTYTAFTVAVTRWRTRFRIEMNKADNDAGNAAIDSLLNYETVKYFNNERYEAQRYDGFLKTYETASLKSTSTLAMLNFGQSAIFSVGLTAIMVLASQGIVAGTLTVGDLVMVNGLLFQLSLPLNFLGTVYRETRQALIDMNTLFTLLKVDTQIKDKVMASPLQITPQTATVAFDNVHFEYIEGQKVLSGISFEVPAGKKVAIVGGSGSGKSTIVRLLFRFYEPQKGSIYLAGQNIQDVSLESLRRAVGVVPQDAVLFHNTIYYNLLYGNISASPEEVYAVAKLAGLHDAILRMPHGYDTQVGERGLKLSGGEKQRVAIARAILKDPPVILYDEATSSLDSITEETILGAMKDVVKHRTSIFIAHRLSTVVDADEIIVLDQGKVAERGTHHGLLANPHSIYSEMWHTQSSRVQNHDNPKWEAKKENISKEEERKKLQEEIVNSVKGCGNCSC | 5300 ± 1000 µM | 0.58 µM/min |  | 
2 | ABCB7 (Homo sapiens; E433K) (protein) HSAILIRPLVSVSGSGPQWRPHQLGALGTARAYQIPESLKSITWQRLGKGNSGQFLDAAKALQVWPLIEKRTCWHGHAGGGLHTDPKEGLKDVDTRKIIKAMLSYVWPKDRPDLRARVAISLGFLGGAKAMNIVVPFMFKYAVDSLNQMSGNMLNLSDAPNTVATMATAVLIGYGVSRAGAAFFNEVRNAVFGKVAQNSIRRIAKNVFLHLHNLDLGFHLSRQTGALSKAIDRGTRGISFVLSALVFNLLPIMFEVMLVSGVLYYKCGAQFALVTLGTLGTYTAFTVAVTRWRTRFRIEMNKADNDAGNAAIDSLLNYETVKYFNNERYEAQRYDGFLKTYETASLKSTSTLAMLNFGQSAIFSVGLTAIMVLASQGIVAGTLTVGDLVMVNGLLFQLSLPLNFLGTVYRKTRQALIDMNTLFTLLKVDTQIKDKVMASPLQITPQTATVAFDNVHFEYIEGQKVLSGISFEVPAGKKVAIVGGSGSGKSTIVRLLFRFYEPQKGSIYLAGQNIQDVSLESLRRAVGVVPQDAVLFHNTIYYNLLYGNISASPEEVYAVAKLAGLHDAILRMPHGYDTQVGERGLKLSGGEKQRVAIARAILKDPPVILYDEATSSLDSITEETILGAMKDVVKHRTSIFIAHRLSTVVDADEIIVLDQGKVAERGTHHGLLANPHSIYSEMWHTQSSRVQNHDNPKWEAKKENISKEEERKKLQEEIVNSVKGCGNCSC |  |  | 490 ± 110 µM | 0.37 µM/min
3 | ABCB7 (Homo sapiens; E433D) (protein) HSAILIRPLVSVSGSGPQWRPHQLGALGTARAYQIPESLKSITWQRLGKGNSGQFLDAAKALQVWPLIEKRTCWHGHAGGGLHTDPKEGLKDVDTRKIIKAMLSYVWPKDRPDLRARVAISLGFLGGAKAMNIVVPFMFKYAVDSLNQMSGNMLNLSDAPNTVATMATAVLIGYGVSRAGAAFFNEVRNAVFGKVAQNSIRRIAKNVFLHLHNLDLGFHLSRQTGALSKAIDRGTRGISFVLSALVFNLLPIMFEVMLVSGVLYYKCGAQFALVTLGTLGTYTAFTVAVTRWRTRFRIEMNKADNDAGNAAIDSLLNYETVKYFNNERYEAQRYDGFLKTYETASLKSTSTLAMLNFGQSAIFSVGLTAIMVLASQGIVAGTLTVGDLVMVNGLLFQLSLPLNFLGTVYRDTRQALIDMNTLFTLLKVDTQIKDKVMASPLQITPQTATVAFDNVHFEYIEGQKVLSGISFEVPAGKKVAIVGGSGSGKSTIVRLLFRFYEPQKGSIYLAGQNIQDVSLESLRRAVGVVPQDAVLFHNTIYYNLLYGNISASPEEVYAVAKLAGLHDAILRMPHGYDTQVGERGLKLSGGEKQRVAIARAILKDPPVILYDEATSSLDSITEETILGAMKDVVKHRTSIFIAHRLSTVVDADEIIVLDQGKVAERGTHHGLLANPHSIYSEMWHTQSSRVQNHDNPKWEAKKENISKEEERKKLQEEIVNSVKGCGNCSC |  |  | 850 ± 280 µM | 0.35 µM/min
4 | ABCB7 (Homo sapiens; E433Q) (protein) HSAILIRPLVSVSGSGPQWRPHQLGALGTARAYQIPESLKSITWQRLGKGNSGQFLDAAKALQVWPLIEKRTCWHGHAGGGLHTDPKEGLKDVDTRKIIKAMLSYVWPKDRPDLRARVAISLGFLGGAKAMNIVVPFMFKYAVDSLNQMSGNMLNLSDAPNTVATMATAVLIGYGVSRAGAAFFNEVRNAVFGKVAQNSIRRIAKNVFLHLHNLDLGFHLSRQTGALSKAIDRGTRGISFVLSALVFNLLPIMFEVMLVSGVLYYKCGAQFALVTLGTLGTYTAFTVAVTRWRTRFRIEMNKADNDAGNAAIDSLLNYETVKYFNNERYEAQRYDGFLKTYETASLKSTSTLAMLNFGQSAIFSVGLTAIMVLASQGIVAGTLTVGDLVMVNGLLFQLSLPLNFLGTVYRQTRQALIDMNTLFTLLKVDTQIKDKVMASPLQITPQTATVAFDNVHFEYIEGQKVLSGISFEVPAGKKVAIVGGSGSGKSTIVRLLFRFYEPQKGSIYLAGQNIQDVSLESLRRAVGVVPQDAVLFHNTIYYNLLYGNISASPEEVYAVAKLAGLHDAILRMPHGYDTQVGERGLKLSGGEKQRVAIARAILKDPPVILYDEATSSLDSITEETILGAMKDVVKHRTSIFIAHRLSTVVDADEIIVLDQGKVAERGTHHGLLANPHSIYSEMWHTQSSRVQNHDNPKWEAKKENISKEEERKKLQEEIVNSVKGCGNCSC |  |  | 710 ± 300 µM | 0.28 µM/min
